One may read the Kd as the free concentration of one partner at which half of the binding sites on the other are occupied at equilibrium, for simple one-to-one binding. Usually koff stands for the first-order rate constant of dissociation. Broadly, the kon is the rate constant with which the complex forms. In general, EC50 refers to the concentration needed to bring the measured effect to its halfway point.

Test [1] addresses T1, recombinant chimpanzee PSMA extracellular domain (ECD) protein (Pan troglodytes, UniProt Q04609 44-750 (human entry)).
T1 construct: also called Chimp PSMA ECD; PSMG8
T1 chain: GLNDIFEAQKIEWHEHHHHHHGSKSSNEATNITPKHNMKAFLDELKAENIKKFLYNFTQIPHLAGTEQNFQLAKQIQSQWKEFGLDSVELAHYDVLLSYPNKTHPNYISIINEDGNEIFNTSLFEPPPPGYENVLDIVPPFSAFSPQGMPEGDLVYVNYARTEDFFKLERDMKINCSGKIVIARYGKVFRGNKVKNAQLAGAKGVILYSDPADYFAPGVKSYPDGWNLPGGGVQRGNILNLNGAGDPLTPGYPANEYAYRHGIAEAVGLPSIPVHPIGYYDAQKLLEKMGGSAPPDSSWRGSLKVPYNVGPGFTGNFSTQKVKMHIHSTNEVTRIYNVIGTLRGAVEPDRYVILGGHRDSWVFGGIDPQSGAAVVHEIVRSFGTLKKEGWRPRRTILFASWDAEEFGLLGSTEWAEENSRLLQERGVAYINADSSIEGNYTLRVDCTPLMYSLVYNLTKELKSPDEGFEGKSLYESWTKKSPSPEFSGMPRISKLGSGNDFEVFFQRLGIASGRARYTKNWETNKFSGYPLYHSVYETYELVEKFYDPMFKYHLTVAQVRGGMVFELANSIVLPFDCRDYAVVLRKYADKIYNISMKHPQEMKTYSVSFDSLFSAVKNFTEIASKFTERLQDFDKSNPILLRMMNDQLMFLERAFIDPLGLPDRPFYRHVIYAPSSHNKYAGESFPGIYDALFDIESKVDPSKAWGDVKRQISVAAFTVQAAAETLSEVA
In words: SPR ProteOn.

Test [2] concerns the target T1, recombinant chimpanzee PSMA …. Briefly: SPR ProteOn, bsAb captured by anti-Fc. The protocol:
The interactions of PSMA×CD3 bispecific mAbs with target (recombinant Chimp, PSMA) were studied by Surface Plasmon Resonance (SPR) using a ProteOn XPR36 system (BioRad). […] Approximately 4400 RU (response units) of anti-Human IgG Fc antibodies were immobilized. The kinetic experiments were performed at 25° C. in running buffer (DPBS+0.03% P20+100 μg/ml BSA). […] The association phase was monitored for 3 minutes at 50 μL/min, then followed by 15 minutes of buffer flow (dissociation phase). The chip surface was regenerated with two 18 second pulses of 100 mM Phosphoric acid (H₃PO₄, Sigma, cat #7961) at 100 μL/min.
The collected data were processed using ProteOn Manager software. First, the data was corrected for background using inter-spots. Then, double reference subtraction of the data was performed by using the buffer injection for analyte injections. The kinetic analysis of the data was performed using a Langmuir 1:1 binding model.

Test [3] addresses T2, human PSMA (prostate specific membrane antigen), full length (human, UniProt Q04609 1-750).
T2 construct: On LNCaP or C4-2B cells (endogenous) or transduced HEK293F cells; also called FOLH1_HUMAN; hPSMA
Briefly: FACS, whole cell binding, LNCaP; calculated EC50. Here is the method:
(§1) PSMA×CD3 bispecific antibodies were tested for binding to PSMA positive cell lines LNCAP, human PSMA-HEK, Chimpanzee-PSMA-HEK and Cynomolgous monkey PSMA-HEK. To assess the binding capabilities of the PSMA bispecific antibodies, the cell-binding assay was utilized (described previously). Briefly, PSMA expressing tumor cells are bound by bispecific antibodies at known concentrations and the bound antibody is detected by an anti-human kappa light chain PE conjugated detection reagent (Invitrogen). The Mean Fluorescents Intensity (MFI) is the measure of bound bispecific antibody. The MFI is converted to a relative EC₅₀. EC₅₀ is a commonly used dose-response curve, where the half maximal effective concentration or the EC₅₀ point is defined as the inflection point of the curve. EC₅₀ s were determined by measuring cell bound bispecific and known concentrations. […] The dose response curves were then diluted down to that of background or no bispecific binding. The inflection point of this curve reflects the EC₅₀ point. The calculated EC₅₀ is determined by taking the ug/ml amount of bispecific antibody at the EC₅₀ point and converting it to a molarity value based on the MW of the bispecific antibody. Bispecific antibodies were normalized for protein concentration and then incubated with the same number of cells expressing either human or cyno PSMA. The MFI at each concentration was collected by flow cytometry and plotted as a function of concentration. Data was transformed via log 10 and then plotted. Nonlinear regression of binding curves was done to determine EC₅₀ s. These relative values were used for ranking PSMA binding to target cells.

Test [4] addresses T3, Cynomolgous monkey PSMA, full length (Macaca fascicularis, UniProt Q04609 1-750 (human entry)).
T3 construct: On transfected HEK293F cells; also called cyno PSMA; EHH56646.1
T3 chain: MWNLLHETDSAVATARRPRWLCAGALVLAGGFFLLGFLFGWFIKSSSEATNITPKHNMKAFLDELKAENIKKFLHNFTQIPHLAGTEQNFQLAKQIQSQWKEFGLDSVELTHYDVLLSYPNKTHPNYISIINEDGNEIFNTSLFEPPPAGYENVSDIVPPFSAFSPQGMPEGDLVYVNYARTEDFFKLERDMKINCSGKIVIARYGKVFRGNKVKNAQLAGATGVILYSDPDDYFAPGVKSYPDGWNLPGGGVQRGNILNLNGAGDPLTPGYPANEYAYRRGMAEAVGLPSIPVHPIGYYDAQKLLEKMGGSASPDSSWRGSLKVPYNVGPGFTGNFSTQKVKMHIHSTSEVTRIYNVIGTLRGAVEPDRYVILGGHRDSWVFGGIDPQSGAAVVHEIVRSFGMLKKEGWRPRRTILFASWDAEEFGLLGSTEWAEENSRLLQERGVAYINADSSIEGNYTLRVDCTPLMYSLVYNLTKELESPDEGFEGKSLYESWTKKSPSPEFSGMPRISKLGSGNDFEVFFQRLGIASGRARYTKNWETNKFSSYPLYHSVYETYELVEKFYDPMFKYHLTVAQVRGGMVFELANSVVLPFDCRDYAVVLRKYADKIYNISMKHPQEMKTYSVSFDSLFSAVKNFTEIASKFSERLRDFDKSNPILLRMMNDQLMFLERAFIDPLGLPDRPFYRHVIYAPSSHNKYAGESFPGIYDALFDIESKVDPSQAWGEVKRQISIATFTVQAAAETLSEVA
Briefly: FACS, whole cell binding, cyno PSMA HEK; calculated EC50. The protocol: as §1

B1: PS3B25 (bispecific antibody, human IgG4 S228P, kappa, lambda, F234A L235A)
heavy 1: not shown
light 1: not shown
heavy 2: EVQLVESGGGLVQPGGSLRLSCAASGFTFNTYAMNWVRQAPGKGLEWVARIRSKYNNYATYYAASVKGRFTISRDDSKNSLYLQMNSLKTEDTAVYYCARHGNFGNSYVSWFAYWGQGTLVTVSSASTKGPSVFPLAPCSRSTSESTAALGCLVKDYFPEPVTVSWNSGALTSGVHTFPAVLQSSGLYSLSSVVTVPSSSLGTKTYTCNVDHKPSNTKVDKRVESKYGPPCPPCPAPEAAGGPSVFLFPPKPKDTLMISRTPEVTCVVVDVSQEDPEVQFNWYVDGVEVHNAKTKPREEQFNSTYRVVSVLTVLHQDWLNGKEYKCKVSNKGLPSSIEKTISKAKGQPREPQVYTLPPSQEEMTKNQVSLTCLVKGFYPSDIAVEWESNGQPENNYKTTPPVLDSDGSFLLYSKLTVDKSRWQEGNVFSCSVMHEALHNHYTQKSLSLSLGK
light 2: QTVVTQEPSLTVSPGGTVTLTCRSSTGAVTTSNYANWVQQKPGQAPRGLIGGTNKRAPGTPARFSGSLLGGKAALTLSGVQPEDEAEYYCALWYSNLWVFGGGTKLTVLGQPKAAPSVTLFPPSSEELQANKATLVCLISDFYPGAVTVAWKADSSPVKAGVETTTPSKQSNNKYAASSYLSLTPEQWKSHRSYSCQVTHEGSTVEKTVAPTECS
notes: IgG4 PAA; also called PSMB87 x CD3B219
As to B1, in test [1], the Kd amounted to 3.54 nM. Moreover, in test [2], the Kd amounted to 5.5 nM, the koff came to 0.00106 s⁻¹ and the kon came out at 195000 M⁻¹ s⁻¹.

B2: PS3B28 (bispecific antibody, human IgG4 S228P, kappa, lambda, F234A L235A)
heavy 1: not shown
light 1: not shown
heavy 2: EVQLVESGGGLVQPGGSLRLSCAASGFTFNTYAMNWVRQAPGKGLEWVARIRSKYNNYATYYAASVKGRFTISRDDSKNSLYLQMNSLKTEDTAVYYCARHGNFGNSYVSWFAYWGQGTLVTVSSASTKGPSVFPLAPCSRSTSESTAALGCLVKDYFPEPVTVSWNSGALTSGVHTFPAVLQSSGLYSLSSVVTVPSSSLGTKTYTCNVDHKPSNTKVDKRVESKYGPPCPPCPAPEAAGGPSVFLFPPKPKDTLMISRTPEVTCVVVDVSQEDPEVQFNWYVDGVEVHNAKTKPREEQFNSTYRVVSVLTVLHQDWLNGKEYKCKVSNKGLPSSIEKTISKAKGQPREPQVYTLPPSQEEMTKNQVSLTCLVKGFYPSDIAVEWESNGQPENNYKTTPPVLDSDGSFLLYSKLTVDKSRWQEGNVFSCSVMHEALHNHYTQKSLSLSLGK
light 2: QTVVTQEPSLTVSPGGTVTLTCRSSTGAVTTSNYANWVQQKPGQAPRGLIGGTNKRAPGTPARFSGSLLGGKAALTLSGVQPEDEAEYYCALWYSNLWVFGGGTKLTVLGQPKAAPSVTLFPPSSEELQANKATLVCLISDFYPGAVTVAWKADSSPVKAGVETTTPSKQSNNKYAASSYLSLTPEQWKSHRSYSCQVTHEGSTVEKTVAPTECS
notes: IgG4 PAA; PSMA arm chains first, then CD3 arm (F405L, R409K); also called PSMB128 x CD3B219
For B2, in test [2], the Kd was determined as 17.4 nM, the koff is 0.00233 s⁻¹ and the kon is 134000 M⁻¹ s⁻¹. For the same molecule, the EC50 in test [3] is 8.1 nM. Further, in test [4], the EC50 is 4.8 nM.

B3: PS3B30 (bispecific antibody, human IgG4 S228P, kappa, lambda, F234A L235A)
heavy 1: not shown
light 1: not shown
heavy 2: EVQLVESGGGLVQPGGSLRLSCAASGFTFNTYAMNWVRQAPGKGLEWVARIRSKYNNYATYYAASVKGRFTISRDDSKNSLYLQMNSLKTEDTAVYYCARHGNFGNSYVSWFAYWGQGTLVTVSSASTKGPSVFPLAPCSRSTSESTAALGCLVKDYFPEPVTVSWNSGALTSGVHTFPAVLQSSGLYSLSSVVTVPSSSLGTKTYTCNVDHKPSNTKVDKRVESKYGPPCPPCPAPEAAGGPSVFLFPPKPKDTLMISRTPEVTCVVVDVSQEDPEVQFNWYVDGVEVHNAKTKPREEQFNSTYRVVSVLTVLHQDWLNGKEYKCKVSNKGLPSSIEKTISKAKGQPREPQVYTLPPSQEEMTKNQVSLTCLVKGFYPSDIAVEWESNGQPENNYKTTPPVLDSDGSFLLYSKLTVDKSRWQEGNVFSCSVMHEALHNHYTQKSLSLSLGK
light 2: QTVVTQEPSLTVSPGGTVTLTCRSSTGAVTTSNYANWVQQKPGQAPRGLIGGTNKRAPGTPARFSGSLLGGKAALTLSGVQPEDEAEYYCALWYSNLWVFGGGTKLTVLGQPKAAPSVTLFPPSSEELQANKATLVCLISDFYPGAVTVAWKADSSPVKAGVETTTPSKQSNNKYAASSYLSLTPEQWKSHRSYSCQVTHEGSTVEKTVAPTECS
notes: IgG4 PAA; PSMA arm chains first, then CD3 arm (F405L, R409K); also called PSMB130 x CD3B219
With B3, in test [2], the Kd came to 22.4 nM, the koff is 0.00165 s⁻¹ and the association rate constant (kon) came out at 73400 M⁻¹ s⁻¹. Also, the EC50 in test [3] was 8.5 nM. Also, the EC50 in test [4] was 37.8 nM.

B4: PS3B20 (bispecific antibody, human IgG4 S228P, kappa, lambda, F234A L235A)
heavy 1: not shown
light 1: not shown
heavy 2: EVQLVESGGGLVQPGGSLRLSCAASGFTFNTYAMNWVRQAPGKGLEWVARIRSKYNNYATYYAASVKGRFTISRDDSKNSLYLQMNSLKTEDTAVYYCARHGNFGNSYVSWFAYWGQGTLVTVSSASTKGPSVFPLAPCSRSTSESTAALGCLVKDYFPEPVTVSWNSGALTSGVHTFPAVLQSSGLYSLSSVVTVPSSSLGTKTYTCNVDHKPSNTKVDKRVESKYGPPCPPCPAPEAAGGPSVFLFPPKPKDTLMISRTPEVTCVVVDVSQEDPEVQFNWYVDGVEVHNAKTKPREEQFNSTYRVVSVLTVLHQDWLNGKEYKCKVSNKGLPSSIEKTISKAKGQPREPQVYTLPPSQEEMTKNQVSLTCLVKGFYPSDIAVEWESNGQPENNYKTTPPVLDSDGSFLLYSKLTVDKSRWQEGNVFSCSVMHEALHNHYTQKSLSLSLGK
light 2: QTVVTQEPSLTVSPGGTVTLTCRSSTGAVTTSNYANWVQQKPGQAPRGLIGGTNKRAPGTPARFSGSLLGGKAALTLSGVQPEDEAEYYCALWYSNLWVFGGGTKLTVLGQPKAAPSVTLFPPSSEELQANKATLVCLISDFYPGAVTVAWKADSSPVKAGVETTTPSKQSNNKYAASSYLSLTPEQWKSHRSYSCQVTHEGSTVEKTVAPTECS
notes: IgG4 PAA; PSMA arm chains first, then CD3 arm (F405L, R409K); also called PSMB120 x CD3B219
For the molecule B4, in test [2], the Kd was 21.4 nM, the koff is 0.000378 s⁻¹ and the kon was determined as 17600 M⁻¹ s⁻¹. For the same molecule, the half-maximal effective concentration (EC50) in test [3] is 864 nM. For the same molecule, the EC50 in test [4] was 14.1 nM.

These data come from patent US20200024360A1 (Janssen / Centocor, published 2020).
